Results as given in PMC5306355, “Clustered Genes Encoding 2-Keto-L-Gulonate Reductase and L-Idonate 5-Dehydrogenase in the Novel Fungal D-Glucuronic Acid Pathway” (Frontiers in Microbiology, 2017).

Assays:
Assay type in all cases: biochemical, Aspergillus niger
[1] = tested on: GluE; experiment: NADH oxidation followed at […] nm; conditions: 400 μM NADH; 50 mM Tris pH 7
[2] = tested on: GluE; experiment: NADH formation followed at […] nm; conditions: 400 μM NAD+; 50 mM Tris pH 8
[3] = substrate: O=C(O)C(=O)[C@@H](O)[C@H](O)[C@@H](O)CO; experiment: purified protein; conditions: NADPH as co-substrate (Methods print 400 μM NADH), 50 mM Tris pH 7
[4] = substrate: O=C(O)[C@H](O)[C@@H](O)[C@H](O)[C@@H](O)CO; experiment: purified protein; conditions: NADP+ as co-substrate (Methods print 400 μM NAD+), 50 mM Tris pH 8

`O=C(CO)[C@@H](O)[C@H](O)[C@@H](O)C(=O)O` [5-keto-D-gluconate] gave a Km [1] of 8.4 ± 0.1 mM.

In the case of `O=C(O)[C@H](O)[C@@H](O)[C@H](O)[C@@H](O)CO` [L-idonate], the Km [2] is reported as 30.9 ± 1.5 mM.

B1: GluD (Aspergillus niger) (protein)
chain: MPAALLIGAITHSMPEWNDLSSILTLKEFPSGTREDFIRNCRDGQYDDVVAIYRSNTSTKFTGPFDAELLSFLPSSLKYIAHNGAGYDNIDVAACTKKGIAVSSTPVAVNNATADVAIFLMIGALRQAYIPVTSLREGKFLGQTGLGHDPQNKVLGILGMGGIGREVARRARAFGMTIQYHNRSRLSPELEDGATYVSFDELLANSDVLSLNLALNASTRHIIGKTEFQKMKDGVIIVNTARGALIDEKALVEALESGKVWSAGLDVYENEPAIEPGLVNNPRVMLLPHIGTMTYETQREMELLVLNNLRSGVETGKMITLVPEQKDVFGK
B1 showed a Km [3] of 25.3 ± 1.2 mM, a Vmax [3] of 34.9 µmol/min/mg and a kcat [3] of 21.4 ± 0.3 s⁻¹. The Km [4] was 12.6 ± 0.8 mM, the Vmax [4] was 1.7 µmol/min/mg and the kcat [4] was 1.1 s⁻¹.
